The results in this text go back to patent US20190185537A1 (AstraZeneca / MedImmune, published 2019).

The chains are these.
T1: human glucose-dependent insulinotropic peptide (gastric inhibitory polypeptide) receptor (human) (UniProt P48546)
T1 sequence (looked up): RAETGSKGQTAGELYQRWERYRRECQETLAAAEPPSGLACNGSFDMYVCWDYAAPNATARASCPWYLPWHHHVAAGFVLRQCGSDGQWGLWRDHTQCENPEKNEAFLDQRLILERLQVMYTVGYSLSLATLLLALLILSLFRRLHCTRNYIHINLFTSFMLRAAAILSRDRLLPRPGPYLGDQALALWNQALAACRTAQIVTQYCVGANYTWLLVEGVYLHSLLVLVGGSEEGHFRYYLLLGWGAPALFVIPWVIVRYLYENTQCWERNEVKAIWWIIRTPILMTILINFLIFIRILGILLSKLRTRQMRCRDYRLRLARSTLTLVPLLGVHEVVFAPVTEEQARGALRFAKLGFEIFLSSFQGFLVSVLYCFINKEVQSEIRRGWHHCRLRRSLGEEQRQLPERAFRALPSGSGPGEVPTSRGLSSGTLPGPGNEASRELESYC

B1: g838 (peptide)
peptide: HSQGTFTSDYSEYLDSK([Ahx-Palmitoyl])RARDFVAWLEAGG-NH2
modifications: N-terminus assumed
SMILES: CCCCCCCCCCCCCCCC(=O)NCCCCCC(=O)NCCCC[C@H](NC(=O)[C@H](CO)NC(=O)[C@H](CC(=O)O)NC(=O)[C@H](CC(C)C)NC(=O)[C@H](Cc1ccc(O)cc1)NC(=O)[C@H](CCC(=O)O)NC(=O)[C@H](CO)NC(=O)[C@H](Cc1ccc(O)cc1)NC(=O)[C@H](CC(=O)O)NC(=O)[C@H](CO)NC(=O)[C@@H](NC(=O)[C@H](Cc1ccccc1)NC(=O)[C@@H](NC(=O)CNC(=O)[C@H](CCC(N)=O)NC(=O)[C@H](CO)NC(=O)[C@@H](N)Cc1c[nH]cn1)[C@@H](C)O)[C@@H](C)O)C(=O)N[C@@H](CCCNC(=N)N)C(=O)N[C@@H](C)C(=O)N[C@@H](CCCNC(=N)N)C(=O)N[C@@H](CC(=O)O)C(=O)N[C@@H](Cc1ccccc1)C(=O)N[C@H](C(=O)N[C@@H](C)C(=O)N[C@@H](Cc1c[nH]c2ccccc12)C(=O)N[C@@H](CC(C)C)C(=O)N[C@@H](CCC(=O)O)C(=O)N[C@@H](C)C(=O)NCC(=O)NCC(N)=O)C(C)C
B2: g819 (peptide)
peptide: HSQGTFTSDYSKYLDSK([βAla-Palmitoyl])RARDFVAWLEAGG-NH2
modifications: N-terminus assumed
SMILES: CCCCCCCCCCCCCCCC(=O)NCCC(=O)NCCCC[C@H](NC(=O)[C@H](CO)NC(=O)[C@H](CC(=O)O)NC(=O)[C@H](CC(C)C)NC(=O)[C@H](Cc1ccc(O)cc1)NC(=O)[C@H](CCCCN)NC(=O)[C@H](CO)NC(=O)[C@H](Cc1ccc(O)cc1)NC(=O)[C@H](CC(=O)O)NC(=O)[C@H](CO)NC(=O)[C@@H](NC(=O)[C@H](Cc1ccccc1)NC(=O)[C@@H](NC(=O)CNC(=O)[C@H](CCC(N)=O)NC(=O)[C@H](CO)NC(=O)[C@@H](N)Cc1c[nH]cn1)[C@@H](C)O)[C@@H](C)O)C(=O)N[C@@H](CCCNC(=N)N)C(=O)N[C@@H](C)C(=O)N[C@@H](CCCNC(=N)N)C(=O)N[C@@H](CC(=O)O)C(=O)N[C@@H](Cc1ccccc1)C(=O)N[C@H](C(=O)N[C@@H](C)C(=O)N[C@@H](Cc1c[nH]c2ccccc12)C(=O)N[C@@H](CC(C)C)C(=O)N[C@@H](CCC(=O)O)C(=O)N[C@@H](C)C(=O)NCC(=O)NCC(N)=O)C(C)C
B3: g825 (peptide)
peptide: HSQGTFTSDYSEYLDSK([Ahx-Palmitoyl])RARDFVEWLENT-NH2
modifications: not fully specified
B4: g588 (peptide)
peptide: HGQGTFTSDYSKYLDSK([γGlu-Palmitoyl])RAQDFVQWLERGG-NH2
modifications: N-terminus assumed
SMILES: CCCCCCCCCCCCCCCC(=O)N[C@@H](CCC(=O)NCCCC[C@H](NC(=O)[C@H](CO)NC(=O)[C@H](CC(=O)O)NC(=O)[C@H](CC(C)C)NC(=O)[C@H](Cc1ccc(O)cc1)NC(=O)[C@H](CCCCN)NC(=O)[C@H](CO)NC(=O)[C@H](Cc1ccc(O)cc1)NC(=O)[C@H](CC(=O)O)NC(=O)[C@H](CO)NC(=O)[C@@H](NC(=O)[C@H](Cc1ccccc1)NC(=O)[C@@H](NC(=O)CNC(=O)[C@H](CCC(N)=O)NC(=O)CNC(=O)[C@@H](N)Cc1c[nH]cn1)[C@@H](C)O)[C@@H](C)O)C(=O)N[C@@H](CCCNC(=N)N)C(=O)N[C@@H](C)C(=O)N[C@@H](CCC(N)=O)C(=O)N[C@@H](CC(=O)O)C(=O)N[C@@H](Cc1ccccc1)C(=O)N[C@H](C(=O)N[C@@H](CCC(N)=O)C(=O)N[C@@H](Cc1c[nH]c2ccccc12)C(=O)N[C@@H](CC(C)C)C(=O)N[C@@H](CCC(=O)O)C(=O)N[C@@H](CCCNC(=N)N)C(=O)NCC(=O)NCC(N)=O)C(C)C)C(=O)O
B5: g783 (peptide)
peptide: HSQGTFTSDYSEYLDSK([βAla-Palmitoyl])RARDFVAWLEAGG-NH2
modifications: N-terminus assumed
SMILES: CCCCCCCCCCCCCCCC(=O)NCCC(=O)NCCCC[C@H](NC(=O)[C@H](CO)NC(=O)[C@H](CC(=O)O)NC(=O)[C@H](CC(C)C)NC(=O)[C@H](Cc1ccc(O)cc1)NC(=O)[C@H](CCC(=O)O)NC(=O)[C@H](CO)NC(=O)[C@H](Cc1ccc(O)cc1)NC(=O)[C@H](CC(=O)O)NC(=O)[C@H](CO)NC(=O)[C@@H](NC(=O)[C@H](Cc1ccccc1)NC(=O)[C@@H](NC(=O)CNC(=O)[C@H](CCC(N)=O)NC(=O)[C@H](CO)NC(=O)[C@@H](N)Cc1c[nH]cn1)[C@@H](C)O)[C@@H](C)O)C(=O)N[C@@H](CCCNC(=N)N)C(=O)N[C@@H](C)C(=O)N[C@@H](CCCNC(=N)N)C(=O)N[C@@H](CC(=O)O)C(=O)N[C@@H](Cc1ccccc1)C(=O)N[C@H](C(=O)N[C@@H](C)C(=O)N[C@@H](Cc1c[nH]c2ccccc12)C(=O)N[C@@H](CC(C)C)C(=O)N[C@@H](CCC(=O)O)C(=O)N[C@@H](C)C(=O)NCC(=O)NCC(N)=O)C(C)C
B6: g614 (peptide)
peptide: HSQGTFTSDYSEYLDSK([Ahx-Palmitoyl])RAQDFVQWLERGG-NH2
modifications: N-terminus assumed
SMILES: CCCCCCCCCCCCCCCC(=O)NCCCCCC(=O)NCCCC[C@H](NC(=O)[C@H](CO)NC(=O)[C@H](CC(=O)O)NC(=O)[C@H](CC(C)C)NC(=O)[C@H](Cc1ccc(O)cc1)NC(=O)[C@H](CCC(=O)O)NC(=O)[C@H](CO)NC(=O)[C@H](Cc1ccc(O)cc1)NC(=O)[C@H](CC(=O)O)NC(=O)[C@H](CO)NC(=O)[C@@H](NC(=O)[C@H](Cc1ccccc1)NC(=O)[C@@H](NC(=O)CNC(=O)[C@H](CCC(N)=O)NC(=O)[C@H](CO)NC(=O)[C@@H](N)Cc1c[nH]cn1)[C@@H](C)O)[C@@H](C)O)C(=O)N[C@@H](CCCNC(=N)N)C(=O)N[C@@H](C)C(=O)N[C@@H](CCC(N)=O)C(=O)N[C@@H](CC(=O)O)C(=O)N[C@@H](Cc1ccccc1)C(=O)N[C@H](C(=O)N[C@@H](CCC(N)=O)C(=O)N[C@@H](Cc1c[nH]c2ccccc12)C(=O)N[C@@H](CC(C)C)C(=O)N[C@@H](CCC(=O)O)C(=O)N[C@@H](CCCNC(=N)N)C(=O)NCC(=O)NCC(N)=O)C(C)C
B7: g837 (peptide)
peptide: HSQGTFTSDYSEYLDSK([γGlu-Palmitoyl])RARDFVAWLEAGG-NH2
modifications: N-terminus assumed
SMILES: CCCCCCCCCCCCCCCC(=O)N[C@@H](CCC(=O)NCCCC[C@H](NC(=O)[C@H](CO)NC(=O)[C@H](CC(=O)O)NC(=O)[C@H](CC(C)C)NC(=O)[C@H](Cc1ccc(O)cc1)NC(=O)[C@H](CCC(=O)O)NC(=O)[C@H](CO)NC(=O)[C@H](Cc1ccc(O)cc1)NC(=O)[C@H](CC(=O)O)NC(=O)[C@H](CO)NC(=O)[C@@H](NC(=O)[C@H](Cc1ccccc1)NC(=O)[C@@H](NC(=O)CNC(=O)[C@H](CCC(N)=O)NC(=O)[C@H](CO)NC(=O)[C@@H](N)Cc1c[nH]cn1)[C@@H](C)O)[C@@H](C)O)C(=O)N[C@@H](CCCNC(=N)N)C(=O)N[C@@H](C)C(=O)N[C@@H](CCCNC(=N)N)C(=O)N[C@@H](CC(=O)O)C(=O)N[C@@H](Cc1ccccc1)C(=O)N[C@H](C(=O)N[C@@H](C)C(=O)N[C@@H](Cc1c[nH]c2ccccc12)C(=O)N[C@@H](CC(C)C)C(=O)N[C@@H](CCC(=O)O)C(=O)N[C@@H](C)C(=O)NCC(=O)NCC(N)=O)C(C)C)C(=O)O
B8: g684 (peptide)
peptide: HGQGTFTSDYSEYLDSK([Ahx-Palmitoyl])RARDFVAWLERGG-NH2
modifications: N-terminus assumed
SMILES: CCCCCCCCCCCCCCCC(=O)NCCCCCC(=O)NCCCC[C@H](NC(=O)[C@H](CO)NC(=O)[C@H](CC(=O)O)NC(=O)[C@H](CC(C)C)NC(=O)[C@H](Cc1ccc(O)cc1)NC(=O)[C@H](CCC(=O)O)NC(=O)[C@H](CO)NC(=O)[C@H](Cc1ccc(O)cc1)NC(=O)[C@H](CC(=O)O)NC(=O)[C@H](CO)NC(=O)[C@@H](NC(=O)[C@H](Cc1ccccc1)NC(=O)[C@@H](NC(=O)CNC(=O)[C@H](CCC(N)=O)NC(=O)CNC(=O)[C@@H](N)Cc1c[nH]cn1)[C@@H](C)O)[C@@H](C)O)C(=O)N[C@@H](CCCNC(=N)N)C(=O)N[C@@H](C)C(=O)N[C@@H](CCCNC(=N)N)C(=O)N[C@@H](CC(=O)O)C(=O)N[C@@H](Cc1ccccc1)C(=O)N[C@H](C(=O)N[C@@H](C)C(=O)N[C@@H](Cc1c[nH]c2ccccc12)C(=O)N[C@@H](CC(C)C)C(=O)N[C@@H](CCC(=O)O)C(=O)N[C@@H](CCCNC(=N)N)C(=O)NCC(=O)NCC(N)=O)C(C)C

Numbered stars: 1 amine (or outer) side, 2 acyl side, 3 side chain; on linkers, the order of the positions; unused ones are H or OH. Side chains are listed from the residue outwards. Ends that are not written are not given here. * marks the point of attachment. γGlu = O=C(O)[C@H](CCC(=O)[*:2])N[*:1]; Palmitoyl = CCCCCCCCCCCCCCCC(=O)*; Ahx = NCCCCCC(=O)O; βAla = NCCC(=O)O

Sequence of human GLP-1 receptor (P43220 24-463): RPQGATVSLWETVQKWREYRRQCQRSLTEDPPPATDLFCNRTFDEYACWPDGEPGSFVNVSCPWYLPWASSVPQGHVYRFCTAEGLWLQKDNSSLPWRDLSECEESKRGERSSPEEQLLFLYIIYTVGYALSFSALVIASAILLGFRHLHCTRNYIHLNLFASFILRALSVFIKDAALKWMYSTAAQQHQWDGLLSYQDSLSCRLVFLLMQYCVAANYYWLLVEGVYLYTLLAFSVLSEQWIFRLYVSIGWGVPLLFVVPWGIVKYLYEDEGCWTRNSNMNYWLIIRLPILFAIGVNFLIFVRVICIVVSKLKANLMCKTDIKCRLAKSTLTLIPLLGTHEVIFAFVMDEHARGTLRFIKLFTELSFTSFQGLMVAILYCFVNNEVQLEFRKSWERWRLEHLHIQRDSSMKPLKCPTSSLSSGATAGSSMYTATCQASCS

One test concerns the target T1, human glucose-dependent insulinotropic peptide (gastric inhibitory polypeptide) receptor (human). Kind of test: cell-based or functional assay.
Consider B1, for which the cAMP EC50 (assay 1) came to 84.3 nM.
Molecule B2 registered a cAMP EC50 (assay 1) of 103 nM.
In the case of B3, the cAMP EC50 (assay 1) came out at 86.7 nM.
Still for that read-out and setting: in the case of B4 it was 98 nM; in that of B5, 846 nM.
Same read-out and setting: with B6 the figure was 99.3 nM.
In turn, B7 gave a cAMP EC50 (assay 1) of 114 nM.
Same read-out and setting: in the case of B8 it was 146 nM.

Another test deals with human glucagon receptor (human, UniProt P47871 26-477). Kind of test: cell-based or functional assay.
Sequence of human glucagon receptor (P47871 26-477): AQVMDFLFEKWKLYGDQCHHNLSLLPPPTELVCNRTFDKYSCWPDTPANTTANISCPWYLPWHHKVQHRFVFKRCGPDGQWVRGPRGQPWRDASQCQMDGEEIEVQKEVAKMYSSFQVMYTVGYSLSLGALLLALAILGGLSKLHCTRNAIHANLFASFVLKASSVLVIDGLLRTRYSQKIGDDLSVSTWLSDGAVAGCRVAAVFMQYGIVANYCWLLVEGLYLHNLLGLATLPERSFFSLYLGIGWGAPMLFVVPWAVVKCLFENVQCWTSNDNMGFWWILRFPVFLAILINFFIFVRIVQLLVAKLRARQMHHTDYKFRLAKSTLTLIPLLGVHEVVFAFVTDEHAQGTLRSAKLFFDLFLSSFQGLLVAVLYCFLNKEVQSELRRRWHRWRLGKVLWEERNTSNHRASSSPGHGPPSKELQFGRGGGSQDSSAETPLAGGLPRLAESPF
In turn, B1 had a cAMP EC50 (assay 1) of 0.00568 nM.
B2 showed a cAMP EC50 (assay 1) of 0.00234 nM.
The same measure, in the same setting: in the case of B3 it was 0.00367 nM.
B4 came in with a cAMP EC50 (assay 1) of 0.0723 nM.
Take B5: the cAMP EC50 (assay 1) was 0.0911 nM.
As for B6, the cAMP EC50 (assay 1) stood at 0.00365 nM.
The same measure, in the same setting: with B7 the figure was 0.213 nM; with B8, 0.164 nM.

Another test addresses human GLP-1 receptor (human, UniProt P43220 24-463). The test is described as follows: cell-based or functional assay.
With B1, the cAMP EC50 (assay 1) turned out to be 0.0237 nM.
On the same count and under the same terms, in the case of B2 it was 0.018 nM; in that of B3, 0.0191 nM.
In turn, B4 displayed a cAMP EC50 (assay 1) of 0.11 nM.
The molecule B5 gave a cAMP EC50 (assay 1) of 0.0424 nM.
On the same count and under the same terms, in the case of B6 it was 0.00931 nM; in that of B7, 0.467 nM; in that of B8, 0.0151 nM.
